The test system of this data set is O=C(CO)COP(=O)(O)O. Put plainly: purified protein. As to conditions: DHAP to G3P direction, 100 mM TEA-HCl pH 7.6, 1 mM EDTA, 1 mM NAD+, 5 mM disodium hydrogen arsenate, 25 °C, 0.16-10 mM DHAP.

Among the data in article PMC3937304, “The Secreted Triose Phosphate Isomerase of Brugia malayi Is Required to Sustain Microfilaria Production In Vivo” (PLoS Pathogens, 2014) are Km values, retold here.

recombinant Bm-TPI (Brugia malayi): the Michaelis constant (Km) was 1800 µM. For the substance “recombinant Ls-TPI (Litomosoides sigmodontis)”, the Km is 1933 µM.

What is called Km is the substrate concentration at which the rate is half of its maximum.
